The values below come from patent US7202329B2, “Tsg101-GAGp6 interaction and use thereof” (priority 2001, dated 2007).

One data set has as its target ROCK1 (Homo sapiens, UniProt Q13464). The following applies: cited from earlier work.
The target of a further data set is T1, Tsg101 (Homo sapiens, UniProt Q99816).
T1 construct: expressed in transfected cells; host or cells: Saccharomyces cerevisiae strain Y189
T1 sequence (Q99816 1-390): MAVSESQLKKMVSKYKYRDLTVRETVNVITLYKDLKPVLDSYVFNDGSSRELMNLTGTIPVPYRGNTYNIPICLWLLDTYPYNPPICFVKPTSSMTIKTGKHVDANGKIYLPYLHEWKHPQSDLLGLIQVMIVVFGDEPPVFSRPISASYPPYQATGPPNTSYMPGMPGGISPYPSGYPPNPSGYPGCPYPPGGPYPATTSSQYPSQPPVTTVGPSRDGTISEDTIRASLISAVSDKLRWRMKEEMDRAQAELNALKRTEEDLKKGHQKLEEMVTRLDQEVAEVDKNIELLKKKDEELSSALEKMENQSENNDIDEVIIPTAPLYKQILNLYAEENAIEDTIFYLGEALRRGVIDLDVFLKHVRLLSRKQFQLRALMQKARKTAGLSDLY
The data set can be described thus: Yeast two-hybrid filter lift assay for β-Gal activity (Tsg101 / GAGp6 interaction). The data set is classed as cell-based. Also on record: key to Interactions Between Tsg101 and GAGp6 (β-Gal activity, filter lift): +: Positive β-Gal activity indicates that the GAGp6 wild type or mutant protein interacts with Tsg101. The conditions noted are these: for ability to bind Tsg101 protein (in words): yeast two-hybrid, GAGp6 point mutants. An excerpt: Yeast two-hybrid assays were utilized to determine the effect of amino acid substitution mutations in the PTAP motif of HIV GAGp6 on the interaction between Tsg101 and GAGp6. To prepare a yeast two-hybrid activation domain-Tsg101 construct, a DNA fragment encompassing the full-length coding sequence for Tsg101 according to GenBank Accession No. U82130 was obtained by PCR from a human fetal brain cDNA library and cloned into the EcoRI/Pst1 sites of the activation domain parent plasmid GADpN2 (LEU2, CEN4, ARS1, ADH1p-SV40NLS-GAL4 (768–881)-MCS (multiple cloning site)-PGK1t, AmpR, ColE1_ori).
To prepare the yeast two-hybrid DNA binding domain-HIV1 GAGp6 construct, a DNA fragment corresponding to the HIV1 GAGp6 peptide derived from the HIV1.NL43 strain GAG protein was obtained by PCR from the NL43 containing plasmid R9≢apa and was cloned into the EcoRI/Sal1 sites of the binding domain parent plasmid pGBT.Q.
The following amino acid substitution mutations were introduced by PCR into the HIV1 GAGp6 sequence in the yeast two-hybrid binding domain-HIV1 GAGp6 construct described above. The mutations were verified by DNA sequence analysis.
To test the effect of the mutations, yeast cells of the strain Y189 purchased from Clontech (ura3-52 his3*200 ade2-101 trp1-901 leu2-3,112 met gal4 gal80 URA3::GAL1p-lacZ) were co-transformed with the activation domain-Tsg101 construct and one of the binding domain-mutant GAGp6 constructs or the binding domain-wild type GAGp6 construct. Filter lift assays for β-Gal activity were conducted by lifting the transformed yeast colonies with filters, lysing the yeast cells by freezing and thawing, and contacting the lysed cells with X-Gal. […] All binding domain constructs were also tested for self-activation of β-Gal activity.

The next data set concerns the target T2, Full length Tsg101 (Homo sapiens, UniProt Q99816).
T2 construct: expressed in transfected cells; host or cells: Saccharomyces cerevisiae strain Y189
T2 sequence (Q99816 1-390): T1 sequence (Q99816 1-390)
Nature of the data set: Two-hybrid liquid culture β-galactosidase assay. Format: cell-based. The following applies: p6 point mutants. Here is the method: The interactions between Tsg101 and wild-type GAGp6 (WT) or the GAGp6 PTAP mutants were further quantitated by performing liquid culture β-galactosidase assays. Cultures were grown overnight in synthetic media (−Leu, −Trp, +glucose) in 96 well plates, normalized for optical density, and lysed by addition of 6× lysis/substrate solution in 6× Z-buffer (60 mM KCl, 6 mM MgSO4, 360 mM Na2HPO4, 240 mM NaH2PO4, 6 mg/ml CPRG, 0.12U/ml lyticase, 0.075% NP-40). Cultures were incubated for 2 hr at 37° C., clarified by centrifugation, and the optical absorbance of each supernatant was measured (575 nm). Full length Tsg101 bound wild-type p6 in the two-hybrid liquid culture assay, resulting in high levels of β-galactosidase activity (>300-fold over background). […] Each of these point mutations also arrests HIV-1 budding at a late stage (Huang et al. 1995).

Data set [1] addresses T3, interaction between GST-p6 and myc-Tsg101(1-207) (Homo sapiens, UniProt Q99816).
T3 construct: Drosophila S2 cell lysate myc-tagged Tsg101 (residues 1–207); made in house; host or cells: Drosophila S2 cells (used as lysate)
T3 sequence (Q99816 1-207): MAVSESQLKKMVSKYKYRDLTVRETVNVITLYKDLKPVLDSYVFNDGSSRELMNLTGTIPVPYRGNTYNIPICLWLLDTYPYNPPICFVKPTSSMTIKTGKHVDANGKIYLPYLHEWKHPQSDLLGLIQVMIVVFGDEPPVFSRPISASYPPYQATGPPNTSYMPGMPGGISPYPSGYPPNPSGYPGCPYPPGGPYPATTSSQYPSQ
Nature of the data set: In vitro binding assay: competition of p6(1-14) with GST-p6 for myc-Tsg101(1-207). As for the experimental part: A fusion protein with a GST tag fused to the HIV-1 GAGp6 domain was recombinantly expressed and purified by chromatography. In addition, a GAGp6 peptide containing the first 14 amino acid residues (“p6(1–14)”) was synthesized chemically by standard peptide synthesis methods. The peptide was purified by conventional protein purification techniques, e.g., by chromatography.
Nunc/Nalgene Maxisorp plates were incubated overnight at 4° C. or for 1–2 hrs at room temperature in 100 μl of a protein coupling solution containing purified GST-p6 and 50 mM Carbonate, pH=9.6. This allowed the attachment of the GST-p6 fusion protein to the plates. Liquids in the plates were then emptied and wells filled with 400 μl/well of a blocking buffer (SuperBlock; Pierce-Endogen, Rockford, Ill.). […]
Plates were then washed 4×100 μl with 1× PBST solution (Invitrogen; Carlsbad, Calif.). […] Plates were then read on a Packard Fusion instrument at an excitation wavelength of 325 nm and an emission wavelength of 420 nm. […]
Different concentrations of the p6(1–14) peptide were tested, and the relative intensities of the fluorescence signals obtained at different concentrations were plotted against the peptide concentrations. […]

ROCK1, sequence (Q13464 whole entry): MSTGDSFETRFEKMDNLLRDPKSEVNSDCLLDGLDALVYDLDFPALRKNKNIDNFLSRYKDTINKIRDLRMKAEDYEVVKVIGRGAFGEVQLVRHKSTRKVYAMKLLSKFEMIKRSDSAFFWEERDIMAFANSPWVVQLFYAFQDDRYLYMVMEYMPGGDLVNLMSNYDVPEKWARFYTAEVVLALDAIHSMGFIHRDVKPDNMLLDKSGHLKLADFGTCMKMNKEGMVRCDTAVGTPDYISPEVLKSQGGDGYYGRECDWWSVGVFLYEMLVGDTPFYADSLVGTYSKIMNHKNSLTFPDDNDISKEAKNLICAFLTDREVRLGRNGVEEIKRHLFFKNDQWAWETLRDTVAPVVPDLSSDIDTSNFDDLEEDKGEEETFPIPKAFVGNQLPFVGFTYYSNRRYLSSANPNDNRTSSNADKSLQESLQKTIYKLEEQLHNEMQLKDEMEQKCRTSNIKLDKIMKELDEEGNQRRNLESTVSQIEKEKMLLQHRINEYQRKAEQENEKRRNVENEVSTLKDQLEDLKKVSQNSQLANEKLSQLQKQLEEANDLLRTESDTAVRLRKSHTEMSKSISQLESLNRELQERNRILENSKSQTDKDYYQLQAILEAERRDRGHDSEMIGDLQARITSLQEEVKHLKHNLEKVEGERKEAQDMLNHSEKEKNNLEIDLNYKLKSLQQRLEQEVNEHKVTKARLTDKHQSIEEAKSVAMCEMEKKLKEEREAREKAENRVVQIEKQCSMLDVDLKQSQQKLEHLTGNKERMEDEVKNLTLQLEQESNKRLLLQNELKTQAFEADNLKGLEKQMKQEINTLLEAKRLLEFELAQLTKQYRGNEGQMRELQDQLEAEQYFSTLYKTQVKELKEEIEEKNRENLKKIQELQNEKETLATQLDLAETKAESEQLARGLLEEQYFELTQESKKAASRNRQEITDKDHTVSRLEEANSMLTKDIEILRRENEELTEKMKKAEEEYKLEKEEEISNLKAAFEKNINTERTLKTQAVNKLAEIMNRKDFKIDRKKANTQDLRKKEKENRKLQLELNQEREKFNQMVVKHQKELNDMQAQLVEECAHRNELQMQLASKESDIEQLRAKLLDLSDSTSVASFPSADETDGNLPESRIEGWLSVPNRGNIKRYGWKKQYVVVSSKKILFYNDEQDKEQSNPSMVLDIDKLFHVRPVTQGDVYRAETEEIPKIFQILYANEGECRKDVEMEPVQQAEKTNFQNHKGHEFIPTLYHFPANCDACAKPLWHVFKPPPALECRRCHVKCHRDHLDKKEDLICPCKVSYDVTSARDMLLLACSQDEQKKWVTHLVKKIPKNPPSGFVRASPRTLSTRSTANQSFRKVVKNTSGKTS

For `C[C@@H](N)[C@H]1CC[C@H](C(=O)Nc2ccncc2)CC1` [Y-27632, (+)-(R)-trans-4-(1-aminoethyl)-N-(4-pyridyl) cyclohexanecarboxamide], the “selectivity for ROCK1” value on ROCK1 was “highly selective for ROCK1”.

As for “P6/A9R (LQSRPEPTRPPEESFRFGEETTTPSQKQEPIDKELYPLASLRSLFGSDPSSQ; left off: large carriers; small tags and cut ends)”, the “ability to bind Tsg101 protein (in words)” value (“ability” below) with Tsg101 was “abolishes the GAGp6 binding affinity to Tsg101”. Further, the “β-galactosidase activity (in words)” value with Full length Tsg101 is recorded as “reduced β-galactosidase activity to background levels”.

As for “P6/E6G (LQSRPGPTAPPEESFRFGEETTTPSQKQEPIDKELYPLASLRSLFGSDPSSQ; left off: large carriers; small tags and cut ends)”, the “Interactions Between Tsg101 and GAGp6 (β-Gal activity, filter lift)” value in the data set with Tsg101 (yeast strain Y189 co-transformed with activation domain-Tsg101 construct and binding domain-GAGp6 construct) is reported as “+”. The “ability” value is “did not result in the elimination of the Tsg101-GAGp6 interaction” with Tsg101 and “capable of binding Tsg101 protein” with Tsg101 (listed as E6G GAGp6 mutant).

Consider “P6/P7L (LQSRPELTAPPEESFRFGEETTTPSQKQEPIDKELYPLASLRSLFGSDPSSQ; left off: large carriers; small tags and cut ends)”, for which the “ability” value with Tsg101 is “abolishes the GAGp6 binding affinity to Tsg101”. In addition, in the data set with Full length Tsg101, the “β-galactosidase activity (in words)” value is “reduced β-galactosidase activity to background levels”.

Turning to “P6/P10L (LQSRPEPTALPEESFRFGEETTTPSQKQEPIDKELYPLASLRSLFGSDPSSQ; left off: large carriers; small tags and cut ends)”, in the data set with Tsg101, the “ability” value is reported as “abolishes the GAGp6 binding affinity to Tsg101”. Moreover, the “β-galactosidase activity (in words)” value in the data set with Full length Tsg101 was “reduced β-galactosidase activity to background levels”.

In the case of “p6(1-14): chemically synthesized GAGp6 peptide containing the first 14 amino acid residues, includes the PTAP late domain motif (LQSRPEPTAPPEES)”, the “inhibition of protein-protein interaction between GST-p6 and myc-Tsg101(1-207)” value in data set [1] (competitive inhibition curve, FIG. 2) is given as “capable of inhibiting”. The “binding to the N-terminal portion of Tsg101 (amino acid residues 1–207)” value in data set [1] (includes the Tsg101 UEV domain) was “sufficient in binding”.
